Legend:
[1] = biological target: T1, TDP-43-MBP (full-length wild-type TDP-43) (UniProt Q13148 1-414); test: EMSA; Kd,app only in figure; much lower affinity than intron probe; EMSA: 1 nM RNA, 50 mM Tris-HCl pH 7.5, 100 mM KCl, 2 mM MgCl2, 100 mM beta-mercaptoethanol, 0.1 mg/ml BSA, 30 min, room temperature; TDP-43 0-4 (printed mM in Methods, 0-8 uM in legend); 6% native PAGE, Cy5 imaging; conditions: protein: recombinant, tags: MBP, Ni-NTA purified, label: 5' Cy3 on strand 1, 3' Cy5 on 18-mer
[2] = biological target: T1, TDP-43-MBP (full-length wild-type …); test: EMSA; Kd,app only in figure; much higher affinity than exon or repeat; EMSA: 1 nM RNA, 50 mM Tris-HCl pH 7.5, 100 mM KCl, 2 mM MgCl2, 100 mM beta-mercaptoethanol, 0.1 mg/ml BSA, 30 min, room temperature; TDP-43 0-4 (printed mM in Methods, 0-8 uM in legend); 6% native PAGE, Cy5 imaging; conditions: protein: recombinant; tags: MBP; Ni-NTA purified; label: 5' Cy3 on strand 1; 3' Cy5 on 18-mer; 18 bp duplex at 3' end of strand 1, 5' ssRNA overhang
[3] = biological target: T1, TDP-43-MBP (full-length wild-type …); test: EMSA; Kd,app only in figure; affinity similar to CE Ref; EMSA: 1 nM RNA, 50 mM Tris-HCl pH 7.5, 100 mM KCl, 2 mM MgCl2, 100 mM beta-mercaptoethanol, 0.1 mg/ml BSA, 30 min, room temperature; TDP-43 0-4 (printed mM in Methods, 0-8 uM in legend); 6% native PAGE, Cy5 imaging; conditions: protein: recombinant; tags: MBP; Ni-NTA purified; label: 5' Cy3 on strand 1; 3' Cy5 on 18-mer; 18 bp duplex at 3' end of strand 1, 5' ssRNA overhang 26 nt

T1 sequence (Q13148 whole entry): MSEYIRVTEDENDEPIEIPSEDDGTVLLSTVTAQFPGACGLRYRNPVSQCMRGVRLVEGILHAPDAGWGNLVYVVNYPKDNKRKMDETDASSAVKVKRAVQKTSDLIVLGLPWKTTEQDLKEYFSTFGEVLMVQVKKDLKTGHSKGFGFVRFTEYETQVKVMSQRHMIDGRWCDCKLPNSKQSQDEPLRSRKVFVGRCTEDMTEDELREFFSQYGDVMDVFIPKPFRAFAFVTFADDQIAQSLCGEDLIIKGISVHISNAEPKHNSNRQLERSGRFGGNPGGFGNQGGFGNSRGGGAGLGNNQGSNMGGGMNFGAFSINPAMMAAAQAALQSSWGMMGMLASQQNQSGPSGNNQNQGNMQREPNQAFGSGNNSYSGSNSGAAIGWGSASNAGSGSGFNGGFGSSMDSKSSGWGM

B1: Repeat Ref ((GATG)4), rs56041637 (mixed)
RNA 1: UGGAUGGAUGGAUGGAUGGAGCCUCGCUGCCGUCGCCA
RNA 2: UGGCGACGGCAGCGAGGC
modifications: 5' biotin on 18-mer strand
[1]; 18 bp duplex at 3' end of strand 1, 5' ssRNA overhang 20 nt
  binding result: binds

B2: Intron Ref (U), rs12608932 (mixed)
RNA 1: AAUGGAUGGUUGGAUAAAUUGAUGGGUGGAUGGAUGCCUCGCUGCCGUCGCCA
RNA 2: UGGCGACGGCAGCGAGGC
modifications: 5' biotin on 18-mer strand
[2]
  binding result: binds

B3: CE Ref (G), rs12973192 (mixed)
RNA 1: AAGGAUGGAUGGAGAGAUGGGUGAGUGCCUCGCUGCCGUCGCCA
RNA 2: UGGCGACGGCAGCGAGGC
modifications: 5' biotin on 18-mer strand
[1]; 18 bp duplex at 3' end of strand 1, 5' ssRNA overhang 26 nt
  binding result: binds

B4: CE Risk (C), rs12973192 (mixed)
RNA 1: AAGCAUGGAUGGAGAGAUGGGUGAGUGCCUCGCUGCCGUCGCCA
RNA 2: UGGCGACGGCAGCGAGGC
modifications: 5' biotin on 18-mer strand
[3]
  binding result: binds

— paper PMC8891019, “TDP-43 represses cryptic exon inclusion in the FTD–ALS gene UNC13A”
